Patent publication US20180243434A1 (INSERM INSTITUT NATIONAL DE LA SANT ET DE LA RECHERCHE M …, published 2018)

T1: N-terminal Flag-tagged nectin4 expressed in MDA-MB-231 cells (human, UniProt Q96NY8 32-510)
T1 sequence (looked up): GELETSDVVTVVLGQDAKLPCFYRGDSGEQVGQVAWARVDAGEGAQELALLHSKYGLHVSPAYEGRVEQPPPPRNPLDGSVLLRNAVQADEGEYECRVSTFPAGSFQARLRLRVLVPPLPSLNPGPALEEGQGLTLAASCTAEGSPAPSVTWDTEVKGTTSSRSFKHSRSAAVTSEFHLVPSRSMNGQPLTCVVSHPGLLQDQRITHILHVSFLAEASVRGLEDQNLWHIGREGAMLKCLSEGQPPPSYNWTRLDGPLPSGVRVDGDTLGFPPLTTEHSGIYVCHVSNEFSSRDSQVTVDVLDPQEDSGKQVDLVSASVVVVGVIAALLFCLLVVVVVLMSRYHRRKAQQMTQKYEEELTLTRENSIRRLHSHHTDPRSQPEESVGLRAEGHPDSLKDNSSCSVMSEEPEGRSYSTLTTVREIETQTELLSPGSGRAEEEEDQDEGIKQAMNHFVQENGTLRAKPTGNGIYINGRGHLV

T2: endogenous nectin-4 on SUM190 cells (human, UniProt Q96NY8 32-510)
T2 sequence (looked up): T1 sequence (looked up)

T3: nectin1V-Fc (comprising only the IgV domain) (UniProt Q15223 31-143, limits assumed)
T3 construct: domain: IgV domain; not shown: Fc part
T3 sequence (looked up): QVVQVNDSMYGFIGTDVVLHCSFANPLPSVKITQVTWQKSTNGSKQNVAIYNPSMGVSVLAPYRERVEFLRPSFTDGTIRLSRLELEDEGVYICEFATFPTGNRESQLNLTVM

B1: N41mab-vcMMAE (antibody, V domains shown)
VH: QVQLKQSGPGLVQPSQSLSITCTVSGFSLTNYGVHWVRQSPGKGLEWLGVIWSGGSTDYNAAFISRLSISKDTSKSQVFFKMNSLQADDTAIYYCARELIHAMDNWGQGTSVTVSS
VL: DIQMTQSPASLSVSVGETVTITCRASENIYSNLAWYQQKQGNSPQLLVFAATNLADGVPSRFSGSGSGTQYSLKINSLQSEDFGTYYCQHFWGTPTFGGGTKLEIK
modifications: monomethyl auristatin-E (MMAE) conjugated through the MC-Val-Cit-PAB linker; drug to antibody ratio 4.73; sites not stated
B2: N41mab antibody (antibody, V domains shown)
VH: B1 VH
VL: B1 VL
notes: Mouse monoclonal antibody from a hybridoma (mice immunized with nectin4 V-Fc); also called mab1; Mab1

Tests used:
[1] = biological target: T1, N-terminal Flag-tagged nectin4 …; test: cell-based or functional assay
[2] = biological target: T2, endogenous nectin-4 on SUM190 cells; test: cell-based or functional assay
[3] = biological target: T3, nectin1V-Fc (comprising only the IgV …); test: ELISA, plate coated with 5 ug/ml nectin1V-Fc
Procedure: A: Detection by ELISA. Ninety-six-well trays were coated with 5 ug/ml of nectin4V-Fc or nectin1V-Fc (comprising only the IgV domain) overnight at +4° C. as indicated. N41mab recognizes the nectin4V-Fc (bar 3) not the nectin1V-Fc (bar 1).
A sandwich enzyme-linked immunosorbent assay was used to control specificity of N41mab antibody and to perform competition assays between mabs. Ninety-six-well trays were coated with 5 μg/ml of nectin4V-Fc or nectin1V-Fc (comprising only the IgV domain) overnight at +4° C. After washes and saturation with PBS 1% BSA cells were incubated overnight with 0.625 μg/ml of N41mab. Peroxydase conjugated goat anti mouse antibody was incubated 2 h at 25° C. (Pierce). In the case of competition, binding of peroxidase conjugated N41mab was measured in the presence of vairable concentration of “cold” mab. One hundred ul of peroxidase substrate was added (One Step ABST, Pierce), and OD was read at 405 nm.
A sandwich enzyme-linked immunosorbent assay was used to control the specificity of the N41mab antibody. Ninety-six-well trays were coated with 5 μg/ml of nectin4V-Fc or nectin1V-Fc (comprising only the IgV domain) overnight at +4° C. After washes and saturation with PBS 1% BSA cells were incubated overnight with 0.625 μg/ml of mab1/N41mab. […] One hundred μ1 of peroxidase substrate was added (One Step ABST, Pierce), and OD was read at 405 nm.

Binder | IC50 (cell growth, alamarBlue) [1] | IC50 (cell growth, alamarBlue) [2] | binding result [3]
B1 | 2 ng/mL | 4 ng/mL | 
B2 |  |  | no binding (tested: 0.625 µg/ml)
